Measured values as given in the supplement of paper PMC12042874.
± gives the uncertainty stated by the source.

Assay: amyloid nucleation score (Sup35N fusion, yeast selection) (log enrichment); library NNK3; higher = more nucleation; inactive = no reads after selection
Outline: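 Random libraries were run with three technical output replicates. In each, psi-negative yeast expressing Sup35N fused to peptides of 20 random codons were induced 24 hours with 100 μM copper sulfate and grown 7 days at 30°C on medium lacking adenine and uracil, and input and output plasmid inserts were Illumina-sequenced. The nucleation score is the DiMSum log enrichment of output over input reads, centred on the mode score of non-aggregating sequences, and sequences under 100 input reads were excluded.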

Substance	amyloid nucleation score
TIVRY	1.1 ± 0.21
TKAYGCIHTDRRDSQLKFSA	inactive
TKCLLFFNRGCR	1.1 ± 0.14
TKIEVNS	inactive
TKLWFCNFCYSLDAGIGKCV	2.37 ± 0.077
TKVFS	inactive
TLAIGLIDEFRLHA	1.09 ± 0.13
TLDFGF	inactive
TLIQFSLMCVYFSDFLPKAF	inactive
TLLFDPMLNA	inactive
TLNMEFIQFTRSFGKSISPC	inactive
TLSHIGGIEGFINGCLSVGP	inactive
TLSMSWDLTKHFAVVTESRG	inactive
TLSRFPLGNCF	inactive
TLSYVCTNAGGSVFMTCLFF	-0.104 ± 0.58
TLTSYEKIPSMSLSG	inactive
TLVGTFYSMQRSDRIWR	0.475 ± 0.69
TLYVIGLPFDLALMGI	inactive
TMDTYSVPPHNFGMLCYGL	inactive
TMIFYYRYRLVCDGLFFCGT	0.034 ± 0.48
TMLVFGIVNTLVVDNLRSSI	2.01 ± 0.094
TMMACEANWYRSKNIEFVYA	inactive
TMYSLD	inactive

Substance	amyloid nucleation score
TNANRIGMGYDMNNYSTHYR	inactive
TNCCTCVMEASGNEGIGTLN	0.367 ± 0.23
TNFAYMQREGS	inactive
TNITWYTRVLNGLYYTM	inactive
TNKASLFSPAEHIYGKS	inactive
TNLLRTGNASSWMFKRGVEC	inactive
TNNINALMLAIPINEYVVGH	inactive
TNNQNSDRFGVTVPSLTFVR	inactive
TNPMYK	inactive
TNPTVYWDRGMVGCKKLRAH	inactive
TNRFIFPFLNVTHAVLFIFT	1.02 ± 0.19
TNTYF	inactive
TNVSPLTPNT	inactive
TPEVISSV	inactive
TPGSYLGYCIPRFIGLQYDP	inactive
TPLESGLSI	inactive
TPLFHWKNQVSRSFLVWNDL	inactive
TPLGLEWYSSREWGISNLWT	inactive
TPSSCSTLCQTDMQDQWRVG	inactive
TPYGRIFWADDIFNSVAICL	inactive
TQDIKLFHRMDFQLSIKMNS	inactive
TQLLMEFSTVSALDITPCDG	inactive
TQNGGVNVIRFYLCDFLSGL	2.87 ± 0.067

Substance	amyloid nucleation score
TRFLATECITSDEVVYWVTM	inactive
TRLDGHTYMFTL	inactive
TRLRSTPVLVVNW	inactive
TRMSGRHLCVITACLLTLNC	0.576 ± 0.15
TRSGST	inactive
TRVDLLYRSRNDGIVFFSRF	0.773 ± 0.2
TRVFTGKQPENDRET	inactive
TRWQRCSAIPPVGEA	inactive
TSDQSESISLFRYI	inactive
TSFGYNLGLRRCSYRMTAEW	1.44 ± 0.13
TSGQSVVSSRTHCVIRCRRR	inactive
TSLLAELLVWWE	inactive
TSLSTSKVLDASLRMDQLST	inactive
TSMSGDVHVVYVVVEHVKPP	2.46 ± 0.089
TSNRGDWVHFTVYSFYESTM	inactive
TSRLFHKFLGYAPSRTNSSL	inactive
TSTYSFCTRVWYPASIIFGR	inactive
TSWTGWVRCHIGSSNISALT	inactive
TSYKYDSNR	inactive
TSYSKEVFQLLKWVGNLIRG	inactive
TTELVF	inactive
TTEPDRATLSYR	inactive
TTFFGCSFGLCRAIIGLDNV	1.34 ± 0.076

Substance	amyloid nucleation score
TTKEVESNSAHCPKSSLACT	inactive
TTRIVSNCCMLIVL	1.29 ± 0.12
TVAEMNIMLC	2.37 ± 0.076
TVFSCYSWELEMMLWDGSYM	inactive
TVGQQWRPSRKLSSSSAIRN	inactive
TVGTIPFWVALPSTSLNR	inactive
TVHYSLIRWTSGNCGLGYW	0.841 ± 0.17
TVIFWWLKGNRPVSMIDSDI	inactive
TVLGELKVLFRYWFHIIWYF	inactive
TVLYFA	inactive
TVRDELSSVFL	inactive
TVRFLVHYITAKGKSVGITK	inactive
TVRKSSIGGCVASYPFEHNK	inactive
TVSKANWVLLEFLTFCGMI	1.74 ± 0.096
TVSYSQPVWSMDFIVGYLGV	inactive
TVTFYNCIVGCVSNWVSVQG	1.77 ± 0.068
TVYEA	inactive
TVYSGWCTREVRICEPMNRG	inactive
TWGKRFYSGIMVQCIREEWA	-0.741 ± 1.7
TWGPHLIPLFNNL	inactive
TWQFSGYWCSLYMSA	1.67 ± 0.12
TWRFVPRPLLVCMLYRYLCK	inactive
TWSRRGSGAPACVVVTWVPA	inactive

Substance	amyloid nucleation score
TWWSEGIYELKYGLFWLGVV	inactive
TYAYELRIFSDYSHGLGFDP	-0.659 ± 0.88
TYEVPGPPSQRSLSY	inactive
TYFILKETATDLN	inactive
TYKIIRYFLNLICSFRGPMP	inactive
TYLEMDIAPAMRLCS	inactive
TYLHDLYT	inactive
TYMGSTYLSNSYVLVSNNIK	1.72 ± 0.12
TYYRCSSANLSSGRAEVYKY	inactive
VACTVSEAYKCTLIWTHLVR	inactive
VAFYMMYSSGPQRTRRWVTV	inactive
VAGSLVAKP	inactive
VAKVNCTW	-0.431 ± 0.9
VALAGNYCSANVVHCMFLNL	inactive
VARGNMCNL	inactive
VASTVSRVAKDTKAKVAYR	inactive
VATYVPCPCYSMFCAGIC	-0.355 ± 0.7
VAVVIEYMKLVVLG	inactive
VCCFWVVDIKILFSGLPISS	2.28 ± 0.069
VCDSHQ	inactive
VCFILFSS	inactive
VCFVWFRRWPTIPR	inactive
VCGILRIIILGLMYVEALGW	inactive

Substance	amyloid nucleation score
VCLMNVSLRRSSFGATTVLA	inactive
VCMVEDFCCLPFDMLLYWLT	inactive
VCNIAQ	inactive
VCQPNRSQIQGIFLLRNYSV	inactive
VCRWSGGGEIGIICGLVSLV	inactive
VCSMWSSSSMIKLRALDDYM	inactive
VCTFTETHGTYLVFALYQPD	0.367 ± 0.54
VCYYVFRTDIIIVIRVDAWL	inactive
VDCMATSQGRIRKYVNFVIW	2.35 ± 0.08
VDEAEKGVNHLERRGSYSRY	inactive
VDFRYCCGFV	0.824 ± 0.26
VDHRGALVEKFMNNSIWTSF	0.122 ± 0.98
VDIGTYMFKMTHADRWVDHG	inactive
VDKLFCWGLYGLATVDNRVY	inactive
VDLRLDY	inactive
VDNSERLSLHPSVHMGDMGF	inactive
VDSSMDLHSIS	inactive
VDWWSALEDYYSLELLMEVK	inactive
VEDCSFAVVKILWYRPFMIW	inactive
VEIISFSVNKTFQAVFGVDK	1.47 ± 0.072
VEPDRERKENVC	inactive
VEQLTEDKRWRSACKQRRKV	inactive
VESVRVLVINPNSDNQVLYL	inactive

Substance	amyloid nucleation score
VFAFGNIGLVRWFVI	inactive
VFCPTWFTMGGVCIAVAHLV	0.486 ± 0.33
VFCVRRSLQNLRNSGNDSHR	inactive
VFDDY	inactive
VFDGWGLFRLSTICMCLQRH	inactive
VFFVNHFNVWLERM	inactive
VFICSAVTNNSWCERLDFSA	1.5 ± 0.14
VFLSICSEGTFCLGDLSGCV	2.43 ± 0.082
VFMKNLNKIDILTSGLDHIY	inactive
VFNGFVLKVEQVSIGVC	inactive
VFPGTAVNHMESVHGWLVNY	inactive
VFQHGWGEVLRSRQGLLGSR	inactive
VFRMCVYIDLVSLDSYYDVL	inactive
VFSIND	inactive
VFSRKKYRHPWMYAVTFGYC	inactive
VFVQTLILWVHSRIAALQDS	inactive
VFVSLISSMTIFTCFVPECE	3.28 ± 0.069
VFVTM	inactive
VFYGKGETYQEWHSLYFLKS	-0.067 ± 0.98
VFYIHIREVTSVVIILVWCS	inactive
VFYIIW	1.89 ± 0.063
VFYIYSRW	1.69 ± 0.091
